Assay results taken from patent US20230073034A1 (APRILBIO, published 2023).

T1: recombinant human CD40L (rhCD40L-his) (human, UniProt P29965 113-261, limits assumed)
T1 construct: Soluble recombinant form made by the applicant; also called rhCD40L antigen
T1 sequence (looked up): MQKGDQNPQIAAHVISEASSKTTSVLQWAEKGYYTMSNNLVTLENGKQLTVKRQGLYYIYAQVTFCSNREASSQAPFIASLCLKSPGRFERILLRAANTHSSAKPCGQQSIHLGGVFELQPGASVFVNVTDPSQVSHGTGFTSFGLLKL

T2: cell membrane CD40L expressed on D1.1 cells (UniProt P29965 1-261, limits assumed)
T2 sequence (looked up): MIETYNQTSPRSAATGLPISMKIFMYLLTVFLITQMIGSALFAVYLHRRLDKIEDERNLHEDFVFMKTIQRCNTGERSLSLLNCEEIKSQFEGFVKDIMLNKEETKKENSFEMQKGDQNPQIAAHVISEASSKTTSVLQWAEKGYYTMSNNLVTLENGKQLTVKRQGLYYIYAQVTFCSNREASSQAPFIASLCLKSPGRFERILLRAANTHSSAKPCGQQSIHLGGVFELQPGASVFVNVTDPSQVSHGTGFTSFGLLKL


Tests used:
[1] = biological target: T1, recombinant human CD40L (rhCD40L-his); assay: ELISA, CD40L coated at 1 µg/ml
[2] = biological target: T3, recombinant human TNF-α protein (human, UniProt P01375 77-233); assay: ELISA, recombinant human TNF-α coated at 1 µg/ml, HRP goat anti-human Fd detection
T3 construct: also called soluble TNF-α; recombinant soluble TNF-α protein
T3 sequence (P01375 77-233 limits assumed): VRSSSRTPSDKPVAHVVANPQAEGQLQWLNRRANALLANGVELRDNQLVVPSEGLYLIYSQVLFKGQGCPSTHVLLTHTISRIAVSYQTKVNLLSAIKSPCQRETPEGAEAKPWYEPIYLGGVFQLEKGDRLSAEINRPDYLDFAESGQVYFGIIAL
Description: After washing in the same manner as described above, HRP-conjugated goat anti-human Fd antibodies (Southern Biotechnology, Birmingham, Ala.) were diluted with a 0.3% PBA buffer in 1:4,000, and each 100 μl of the diluted antibody samples were added to each well to then be allowed to react at room temperature for 1 hour. To assess antigen-specific binding of the antibodies reacting after the washing, a TMB substrate (BD Bioscience, Franklin Lakes, N.J.) was added and reacted, and the absorbance was measured using a microplate spectrophotometer at A450 nm.
(§1) HRP-conjugated goat anti-human Fd antibodies were used as secondary antibodies.

[3] = biological target: T2, cell membrane CD40L expressed on D1.1 …; assay: cell-based or functional assay
[4] = biological target: T3, recombinant human TNF-α protein; assay: cell-based or functional assay
[5] = biological target: T3, recombinant human TNF-α protein; assay: BLI (Octet RED), antigen on AR2G biosensor
[6] = biological target: T4, human serum albumin (HSA) (human, UniProt P02768 25-609); assay: BLI (Octet RED), antigen on AR2G biosensor
[7] = biological target: T1, recombinant human CD40L (rhCD40L-his); assay: BLI (Octet RED), antigen on AR2G biosensor
[8] = biological target: T4, human serum albumin (HSA); assay: ELISA, HSA coated at 1 µg/ml, HRP goat anti-human Fd detection
Description: After blocking for 2 hours, washing was performed by repeatedly performing a process of completely removing the added buffer, adding each 300 μl of a buffer (PBS-T) containing 0.1% tween-20 PBS (pH 7.4), and then removing the buffer 3 times in total. After removing water remaining after the washing, the respective antibodies were serially diluted 10 folds at concentrations decreasing from 100 nM to 1.0×10⁻⁴ nM in a PBS pH 7.4 buffer (0.3% PBA) containing 0.3% bovine serum albumin and 0.1% tween-20, and each 100 μl of the diluted antibody samples were added to each well to be allowed to react at room temperature for 2 hours. After washing in the same manner as described above, HRP-conjugated goat anti-human Fd antibodies (Southern Biotechnology, Birmingham, Ala.) were diluted with a 0.3% PBA buffer in 1:4,000, and each 100 μl of the diluted antibody samples were added to each well to then be allowed to react at room temperature for 1 hour. To assess antigen-specific binding of the antibodies reacting after the washing, a TMB substrate (BD Bioscience, Franklin Lakes, N.J.) was added and reacted, and the absorbance was measured using a microplate spectrophotometer at A450 nm.
as §1

[9] = biological target: T1, recombinant human CD40L (rhCD40L-his); assay: ELISA, recombinant human CD40L coated at 1 µg/ml, HRP goat anti-human Fd detection

| fold lower binding capacity than anti-human CD40L IgG1 (ruplizumab) [1] | EC50 (read off the curve) [2] | percent inhibition, SEAP response of HEK-Blue reporter cells + D1.1 cells + soluble TNF-α together (FIG. 22C) [3] | IC50, SEAP response of HEK-Blue reporter cells + soluble TNF-α 10 ng/ml (FIG. 22B) [4] | percent inhibition, SEAP response of HEK-Blue reporter cells + D1.1 cells + soluble TNF-α together (FIG. 22C) [4] | Kd [5] | koff [5] | kon [5] | Kd [6] | koff [6] | kon [6] | Kd [7] | koff [7] | kon [7] | EC50 (read off the curve) [8] | EC50 (read off the curve) [9] | binding result [2] | Binder | IC50, inhibition of TNF-α mediated cytotoxicity on L929 mouse cells, with HSA (FIG. 21) [4] |
| --- | --- | --- | --- | --- | --- | --- | --- | --- | --- | --- | --- | --- | --- | --- | --- | --- | --- | --- |
| ~1.5 fold | ~1 nM | 100% | 3.05 nM | 100% | 0.164 nM | 3.82e-05 s⁻¹ | 230000 M⁻¹ s⁻¹ | 0.765 nM | 0.00042 s⁻¹ | 549000 M⁻¹ s⁻¹ | 0.192 nM | 0.000113 s⁻¹ | 590000 M⁻¹ s⁻¹ | ~0.5 nM | ~0.2 nM |  | APB-B1a, (anti-CD40L scFv)2-(anti-HSA SL335 Fab)-(anti-TNF-α Fv) (bispecific antibody) chain 1: DIVLTQSPATLSVSPGERATISCRASQRVSSSTYSYMHWYQQKPGQPPKLLIKYASNLESGVPARFSGSGSGTDFTLTISSVEPEDFATYYCQHSWEIPPTFGGGTKLEIKRGGGGSGGGGSGGGGSQVQLVQSGAEVVKPGASVKLSCKASGYIFTSYYMYWVKQAPGQGLEWIGEINPSNGDTNFNEKFKSKATLTVDKSASTAYMELSSLRSEDTAVYYCTRSDGRNDMDSWGQGTLVTVSSGGGGSGGGGSGGGGSQVQLVQSGGGPVKPGGSLRLSCAASGFMFRAYSMNWVRQAPGKGLEWVSSISSSGRYIHYADSVKGRFTISRDNAKNSLYLQMNSLRAEDTAVYYCARETVMAGKALDYWGQGTLVTVSSASTKGPSVFPLAPSSKSTSEGTAALGCLVKDYFPEPVTVSWNSGALTSGVHTFPAVLQSSGLYSLSSVVTVPSSSLGTQTYICNVNHKPSNTKVDKKVEPKSSGGGGSGGGGSGGGGSEVQLVESGGGLVQPGGSLRLSCAASGYVFTDYGMNWVRQAPGKGLEWMGWINTYIGEPIYADSVKGRFTFSLDTSKSTAYLQMNSLRAEDTAVYYCARGYRSYAMDYWGQGTLVTVSS chain 2: DIVLTQSPATLSVSPGERATISCRASQRVSSSTYSYMHWYQQKPGQPPKLLIKYASNLESGVPARFSGSGSGTDFTLTISSVEPEDFATYYCQHSWEIPPTFGGGTKLEIKRGGGGSGGGGSGGGGSQVQLVQSGAEVVKPGASVKLSCKASGYIFTSYYMYWVKQAPGQGLEWIGEINPSNGDTNFNEKFKSKATLTVDKSASTAYMELSSLRSEDTAVYYCTRSDGRNDMDSWGQGTLVTVSSGSTSGSGKPGSGEGSTKGDIVLTQSPGTLSLSPGETATLSCRASQSVGSNLAWYQQKPGQAPRLLIYGASTGATGVPARFSGSRSGTDFTLTITSLQPEDFATYYCQQYYSFLAKTFGQGTQLEIKRTVAAPSVFIFPPSDEQLKSGTASVVCLLNNFYPREAKVQWKVDNALQSGNSQESVTEQDSKDSTYSLSNTLTLSKADYEKHKVYACEVTHQGLSSPVTKSFNRGESGSTSGSGKPGSGEGSTKGDIQMTQSPSSLSASVGDRVTITCKASQNVGTNVAWYQQKPGKAPKALIYSASFLYSGVPYRFSGSGSGTDFTLTISSLQPEDFATYYCQQYNIYPLTFGQGTKVEIKR | 5.3 nM |
|  |  |  |  |  |  |  |  |  |  |  |  |  |  | ~0.3 nM |  | no binding (tested: 100 nM) | SL335 Fab (anti-human serum albumin Fab) (Fab, V domains shown, also called anti-HSA Fab (SL335)) VH: QVQLVQSGGGPVKPGGSLRLSCAASGFMFRAYSMNWVRQAPGKGLEWVSSISSSGRYIHYADSVKGRFTISRDNAKNSLYLQMNSLRAEDTAVYYCARETVMAGKALDYWGQGTLVTVSS VL: DIVLTQSPGTLSLSPGETATLSCRASQSVGSNLAWYQQKPGQAPRLLIYGASTGATGVPARFSGSRSGTDFTLTITSLQPEDFATYYCQQYYSFLAKTFGQGTQLEIKR |  |
|  |  |  |  |  |  |  |  |  |  |  |  |  |  | ~0.5 nM |  | no binding (tested: 100 nM) | APB-A1, (anti-CD40L hu5c8 scFv)2-anti-HSA SL335 Fab (bispecific antibody, No Fc; also called (anti-hu5c8 scFv)2-SL335; (anti-CD40L scFv)2-anti-HSA Fab) heavy: DIVLTQSPATLSVSPGERATISCRASQRVSSSTYSYMHWYQQKPGQPPKLLIKYASNLESGVPARFSGSGSGTDFTLTISSVEPEDFATYYCQHSWEIPPTFGGGTKLEIKRGGGGSGGGGSGGGGSQVQLVQSGAEVVKPGASVKLSCKASGYIFTSYYMYWVKQAPGQGLEWIGEINPSNGDTNFNEKFKSKATLTVDKSASTAYMELSSLRSEDTAVYYCTRSDGRNDMDSWGQGTLVTVSSGGGGSGGGGSGGGGSQVQLVQSGGGPVKPGGSLRLSCAASGFMFRAYSMNWVRQAPGKGLEWVSSISSSGRYIHYADSVKGRFTISRDNAKNSLYLQMNSLRAEDTAVYYCARETVMAGKALDYWGQGTLVTVSSASTKGPSVFPLAPSSKSTSEGTAALGCLVKDYFPEPVTVSWNSGALTSGVHTFPAVLQSSGLYSLSSVVTVPSSSLGTQTYICNVNHKPSNTKVDKKVEPKSS light: DIVLTQSPATLSVSPGERATISCRASQRVSSSTYSYMHWYQQKPGQPPKLLIKYASNLESGVPARFSGSGSGTDFTLTISSVEPEDFATYYCQHSWEIPPTFGGGTKLEIKRGGGGSGGGGSGGGGSQVQLVQSGAEVVKPGASVKLSCKASGYIFTSYYMYWVKQAPGQGLEWIGEINPSNGDTNFNEKFKSKATLTVDKSASTAYMELSSLRSEDTAVYYCTRSDGRNDMDSWGQGTLVTVSSGSTSGSGKPGSGEGSTKGDIVLTQSPGTLSLSPGETATLSCRASQSVGSNLAWYQQKPGQAPRLLIYGASTGATGVPARFSGSRSGTDFTLTITSLQPEDFATYYCQQYYSFLAKTFGQGTQLEIKRTVAAPSVFIFPPSDEQLKSGTASVVCLLNNFYPREAKVQWKVDNALQSGNSQESVTEQDSKDSTYSLSNTLTLSKADYEKHKVYACEVTHQGLSSPVTKSFNRGES |  |
